Laboratory results reported in patent US8273705B2, “Conversion of apoptotic proteins” (The Burnham Institute, priority 2002, dated 2012).

Assays:
[1] = tested on: peripheral blood lymphocytes (PBLs); assay: TR3 subcellular localization in peripheral blood lymphocytes; type: cell-based, human; settings: DsRed2-Mito
Excerpt: TR3 subcellular localization was studied by both confocal microscopy and subcellular fractionation approaches. For microscopy experiments, freshly isolated PBLs were transfected with GFP-TR3, then treated with phorbol ester TPA and the calcium ionophore ionomycin, which induce TR3-dependent apoptosis of T-lymphocytes.

[2] = tested on: Bcl-2 mutants Y108K, L137A, G145A, R146Q; assay: Co-IP assay with Bcl-2 hydrophobic groove mutants in HEK293T cells; type: binding
Protocol: TR3/Bcl-2 interaction assays—Reporter gene assays using NurRE-tk-CAT in CV-1 cells, and GST pull-down assay were described previously (Li, et al. 2000 Science 289, 1159-1164). For the mammalian two-hybrid assays, CV-1 cells were co-transfected with pcDNA-Gal4TAD-TR3 or pcDNA-Gal4TAD-TR3/ΔDBD and pcDNA-Gal4DBD-Bcl-2/ΔTM along with a luciferase reporter gene driven by four copies of the Gal4-binding site. The cells were harvested and reporter gene activity was measured. […] Immunoreactive products were detected by chemiluminescence with an enhanced chemiluminescence system (ECL) (Amersham).
Binding of BH3 domain to Bcl-2 is mediated by a hydrophobic cleft formed by the BH1, BH2, and BH3 region of Bcl-2 (Sattler et al. 1997 Science 275:983-986). To determine whether TR3/ΔDBD bound to the Bcl-2 hydrophobic groove, several Bcl-2 mutants with mutations of amino acids, Tyr108, Leu137, or Arg146, critical for the formation of the hydrophobic cleft, were analyzed for their interaction with TR3/ΔDBD. […] The Bcl-2 mutants, Y108KBcl-2, L137ABcl-2 and R146QBcl-2, were analyzed for their interaction with GFP-TR3/ΔDBD in 293T cells by Co-IP assay as described in Example 2. […]

Bcl-2/ΔLoop = assay: Co-IP assay with Bcl-2/ΔLoop; type: binding
Protocol: (§1) Therefore, TR3/ΔDBD was analyzed as to its interaction with a fragment of Bcl-2 comprising the first 80 amino acids (Bcl-2/1-80). […] The Bcl-2/1-80 fragment encompasses the N-terminal BH4 domain followed by an unstructured loop domain of approximately 50 amino acids length. To determine whether the BH4 domain or the loop region was responsible for binding to TR3/ΔDBD, TR3/ΔDBD interaction with Bcl-2 mutants lacking the BH4 domain (Bcl-2/ΔBH4) or the loop region (Bcl-2/ΔLoop) was analyzed. […] Thus, the loop region of Bcl-2 is involved in binding to TR3.

Bcl-2/ΔBH4 = target: T1, Bcl-2/ΔBH4 (Homo sapiens, UniProt P10415, DEL7-30); assay: Co-IP assay with Bcl-2/ΔBH4; type: binding
T1 construct: expressed in transfected cells; host or cells: HEK293T
Protocol: as §1

Bcl-2 = target: T2, Bcl-2 (Homo sapiens, UniProt P10415); assay: Bcl-2 conformation by immunoprecipitation with epitope-specific antibodies; type: binding
T2 construct: expressed in transfected cells; host or cells: HEK293T
Excerpt: Second, the effects of TR3/ΔDBD on Bcl-2 conformation were studied by immunoprecipitation assays.

ZR-75-1 cells = assay: GFP-TR3/ΔDBD localization and cytochrome c release in ZR-75-1 cells; type: cell-based; settings: ZR-75-1, absence of any treatment
Protocol: Subcellular localization assays—Cells were seeded onto cover-slips in 6-well plates overnight, then transiently transfected with GFP-fusion expression plasmids. After 16 hours, cells were washed with PBS and fixed in 4% paraformaldehyde. For mitochondrial staining, cells were then incubated with anti-Hsp60 goat IgG (Santa Cruz, USA), followed by anti-goat IgG conjugated with Cy3 (Sigma). For cyt c staining, cells were incubated with monoclonal anti-cyt c IgG (PharMingen), followed by anti-mouse IgG conjugated with Cy5 (Amersham). Fluorescent images were collected and analyzed using a MRC-1024 MP laser-scanning confocal microscope (Bio-Rad). Subcellular fractionation assays were performed as described (Li, et al. 2000 Science 289:1159-1164). Briefly, cells (1×10^7 cells) suspended in 0.5 ml hypotonic buffer (5 mM Tris-HCl, pH 7.4, 5 mM KCl, 1.5 mM MgCl2, 0.1 mM EGTA, pH 8.0, and 1 mM DTT) were homogenized and cell extracts were centrifuged at 500×g for 5 min. […]
To study whether the TR3 nuclear-to-mitochondrial targeting pathway also occurs in breast cancer cells, a GFP-TR3 fusion construct was transfected into MDA-MB-231 cells. […] Next, GFP-TR3/ΔDBD was transiently transfected into ZR-75-1 or MDA-MB-231 cells, stained for mitochondria (Hsp60) and cytochrome c (Cyt c), and analyzed by confocal microscopy.

T2 sequence (P10415 whole entry): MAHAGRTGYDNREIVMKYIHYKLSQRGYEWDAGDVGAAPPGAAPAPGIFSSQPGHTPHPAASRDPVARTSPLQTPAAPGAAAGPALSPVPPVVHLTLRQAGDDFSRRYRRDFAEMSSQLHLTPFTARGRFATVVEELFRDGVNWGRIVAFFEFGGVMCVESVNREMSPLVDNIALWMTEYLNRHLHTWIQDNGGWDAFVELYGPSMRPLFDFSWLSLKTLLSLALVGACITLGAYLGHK
T1 sequence (P10415 with tags, fused parts or gaps DEL7-30): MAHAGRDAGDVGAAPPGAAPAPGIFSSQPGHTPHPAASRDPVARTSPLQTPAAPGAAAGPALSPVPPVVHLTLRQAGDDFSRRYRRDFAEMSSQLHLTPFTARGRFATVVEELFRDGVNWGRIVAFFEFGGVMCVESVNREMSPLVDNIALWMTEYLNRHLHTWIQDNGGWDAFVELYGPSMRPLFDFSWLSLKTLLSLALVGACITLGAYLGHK
Sequence of Bcl-2 mutants Y108K, L137A, G145A, R146Q (P10415 1-80 limits assumed, stated change not applied): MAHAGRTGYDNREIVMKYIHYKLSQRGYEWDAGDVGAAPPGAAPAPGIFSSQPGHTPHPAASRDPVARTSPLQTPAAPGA

interaction with Bcl-2/ΔBH4 (Co-IP) (Bcl-2/ΔBH4): retained the ability to interact
binding of Bcl-2 by antibody against BH3-binding pocket (Bcl-2): reduced binding
binding of Bcl-2 by antibody against BH3 domain (Bcl-2): enhancing binding
immunoprecipitation efficiency of antibody against whole Bcl-2 protein (Bcl-2): did not affect
B1: TR3/ΔDBD: TR3 mutant with the DNA binding domain removed; used as GFP fusion (protein)
chain: MPCIQAQYGTPAPSPGPRDHLASDPLTPEFIKPTMDLASPEAAPAAPTALPSFSTFMDGYTGEFDTFLYQLPGTVQPCSSASSSASSTSSSSATSPASASFKFEDFQVYGCYPGPLSGPVDEALSSSGSDYYGSPCSAPSPSTPSFQPPQLSPWDGSFGHFSPSQTYLVLHRLQCARGFGDWIDSILAFSRSLHSLLVDVPAFACLSALVLITDRHGLQEPRRVEELQNRIASCLKEHVAAVAGEPQPASCLSRLLGKLPELRTLCTQGLQRIFYLKLEDLVPPPPIIDKIFMDTLPF
modifications: left off: large carriers; small tags and cut ends
notes: used as GFP fusion
mitochondrial colocalization [1]: colocalized extensively with DsRed2-Mito
binding of Bcl-2 hydrophobic groove mutants to TR3/ΔDBD (Co-IP) [2]: still capable of binding
interaction with Bcl-2/ΔLoop (Co-IP) (Bcl-2/ΔLoop): did not
GFP-TR3/ΔDBD subcellular localization (ZR-75-1 cells): targeted to mitochondria
cytochrome c release (ZR-75-1 cells): caused release of cytochrome c from the mitochondria
